Experiment: soluble on expression in E. coli; label from the status in PepcDB or PDB records

With “MSQDNSEELIKVEKVEAFFYPIHGIPTMVLYLEDGREFKMFQIPPEIVIALNRLQEKRDYEELLRGDKRENIYDVLAFSSEIKDQLSKIINRVIINDVNEEYGVYIATVEFKFDGVIIEKQLIPSHAVFLAIVSNRPIYVKKNLVDEQEKQERKSGEDV” as the sequence, how does the “soluble on expression in E. coli” value read?
The value was “soluble”.

Which “soluble on expression in E. coli” value does the source give for “MGSDKIHHHHHHMSPRLGDSAEMFVPQEQSGLNEAAPAAPRRPYRLSRRPEERVHVLGGTMDLVRPEEVFHFVTGKLEARQNAIVANHNLHSLYLIGKDHQIGQFYKAADLIEVDSVPLIFWARLVGRASRRFHRCTYLDWRDAFWALASEKNWKVFFVGGAPGVGEKAVERIRQDWPNARIETHHGYFDATQGSAENTAVVAKIRDYAPDIVLVGMGMPRQEIWTLENHQAYGPAATFTVGGAFDYEAGVQKAAPRWMGPLGMEWLFRLMSDPQRLFFRYCIEPWSLIGPACGDVVRALSRRSTTGESRAAENARWEQIRARNEAAR” here?
The value was “not soluble”.

With “MNRTDELRTARIESLVTPAELALRYPVTPGVATHVTDSRRRIEKILNGEDKRLLVIIGPCSIHDLTAAMEYATRLQSLRNQYQSRLEIVMRTYFEKPRTVVGWKGLISDPDLNGSYRVNHGLELARKLLLQVNELGVPTATEFLDMVTGQFIADLISWGAIGARTTESQIHREMASALSCPVGFKNGTDGNTRIAVDAIRAARASHMFLSPDKNGQMTIYQTSGNPYGHIIMRGGKKPNYHADDIAAACDTLHEFDLPEHLVVDFSHGNCQKQHRRQLEVCEDICQQIRNGSTAIAGIMAESFLREGTQKIVGSQPLTYGQSITDPCLGWEDTERLVEKLASAVDTRF” as the sequence, how does the “soluble on expression in E. coli” value read?
Its value is “soluble”.

Which “soluble on expression in E. coli” value does the source give for “MGSDKIHHHHHHMSSAQVNGISKRLIVESPNVKLEDGVLESRFTYRKNHFEHRADGLHVTPKEHDYSFKTVLKPRKTGLLLVGLGGNNGSTAVGSIFANQYAMTWRTKEGHSQANYFGSVTQTATVHLGYDSATQNQIFVPFKDIVPILSPNDLIISGWDISDSNLYEAMGRAKVFEPELQEKLRPFMEPIVPLPSIYYPDFIASNQGDRANNVIPGDNKLEHLEHIRADIRKFKQEHELECVIVLWTANTERYTDVRQGLNATADEIMESIRVNEDEVSPSNIFAVASILEGAHYINGSPQNTLVPGLIELAERHKVFVGGDDFKSGQTKFKSAFVDFLVSSGMKPESIVSYNHLGNNDGKNLSEARQFRSKEISKSSVVDDMVKSNQILFPDAKNPDYCVVIKYVPYVADSKRAMDEYICSIFMGGKQTFVVHNTCEDSLLASPLIYDLAILTELASRVSYKVDDEYKPFHSVLSILSLLLKAPVVPPGTPISNAFMRQFSTLTKLVTALAGFPSDTDMQIEFFTQLPAAKSKSQ” here?
Its value is “soluble”.

Which “soluble on expression in E. coli” value does the source give for “MHHHHHHSSGRENLYFQGSGTIYGWGHNHRGQLGGIEGAKVKVPTPCEALATLRPVQLIGGEQTLFAVTADGKLYATGYGAGGRLGIGGTESVSTPTLLESIQHVFIKKVAVNSGGKHCLALSSEGEVYSWGEAEDGKLGHGNRSPCDRPRVIESLRGIEVVDVAAGGAHSACVTAAGDLYTWGKGRYGRLGHSDSEDQLKPKLVEALQGHRVVDIACGSGDAQTLCLTDDDTVWSWGDGDYGKLGRGGSDGCKVPMKIDSLTGLGVVKVECGSQFSVALTKSGAVYTWGKGDYHRLGHGSDDHVRRPRQVQGLQGKKVIAIATGSLHCVCCTEDGEVYTWGDNDEGQLGDGTTNAIQRPRLVAALQGKKVNRVACGSAHTLAWSTSKP” here?
The value was “soluble”.

With “MGSDKIHHHHHHMRRRVPLNSVRAFEAAARRMSLVQASDELCVTPTAVSHQIRQLEDFLQTKLFLRRSSRLELTPESRACLAKLTEALDIIDDAIAALHKPMDMPERLVVGASASVGSLWLMPRLRNFYRTAPEIDISLTTFIERSAIETDTSDVWICNWHTNLDRRVELLLEEDIIPVCSPQMAEEFGELSFDSLRELPLVHVDRAKASINGQYPDWDRYLREYGISRNDIAKGPRFNQAGPAIEAAKAGMGALLGRSILIERALETGELIRLGDPYPIRNPYYLISPLQPASNAVKMFKDWIFAQAKTRTSTYVELPHKNRRGSDFRLTV” as the sequence, how does the “soluble on expression in E. coli” value read?
Its value is “not soluble”.

For “MGSDKIHHHHHHMAIIKASTAASVAELTTDIDQQLPQLKAKPFSHELLTTSILTMLGTAAFVGIHHRYRKQHLADARVQDYVRGIYSQMNALQSASHSRSMLRHFRYSCQQAASTWQQAYRLPMNDKQSNSSGLATNNFSAMHTTTMLARPVCWVSGVASMPKDISLINEDNENDFGVVGIDADREVVWQTTMPERVHDIVVQPVFRYEDNTVSNHLNHRQSRDVVVMGRRPSEKFWVLDTATGQVRFAINAATNRHFYGHACYSLDGSKLYVTENDTLSLDGKIGAYAVDKGYQKIAEFDSYGIGPHELIMHPDGETLIIANGGIKTEQASREELNLDTMHPSLVYLNRHDGSLLEQITPEHNQMSVRHLAMHDDGTVMIGIQFQGEKHINVPLVLTHKRGDIKLTPLTMPNNQWQRFHQYIASVAVDSKCNLLCVTTPIGGCAAIFDLTTRALINSVSLPDCAGASIYSRKTGSGKGSVDAEQKSGFIVSDGQGQLTRLSVNDLTILDSELNSDAIAKNNTIGTDIKCHMMSFDNHLQAL”, which “soluble on expression in E. coli” value is on record?
Its value is “not soluble”.

With “MGSSHHHHHHSSGLVPRGSHMNIPRFGVKTDQEELLAQELENLNKWGLNIFCVSDYAGGRSLTCIMYMIFQERDLLKKFRIPVDTMVTYMLTLEDHYHADVAYHNSLHAADVLQSTHVLLATPALDAVFTDLEILAALFAAAIHDVDHPGVSNQFLINTNSELALMYNDESVLENHHLAVGFKLLQEDNCDIFQNLSKRQRQSLRKMVIDMVLATDMSKHMTLLADLKTMVETKKVTSSGVLLLDNYSDRIQVLRNMVHCADLSNPTKPLELYRQWTDRIMAEFFQQGDRERERGMEISPMCDKHTASVEKSQVGFIDYIVHPLWETWADLVHPDAQEILDTLEDNRDWYYSAI” as the sequence, how does the “soluble on expression in E. coli” value read?
Its value is “soluble”.

For “DNIITGRMKPLHWREMKEVDPNRVTLIDARPRQAYEVEHIPGAISMPVEEIRARIGEIPHDKPIYVYCAVGMRGYFASNILRQCGFSNVRNLIGGYRLYSTITADYSSAGQPATAQLPAKDSPSSHTQVPE”, which “soluble on expression in E. coli” value is on record?
Its value is “not soluble”.

For “MSLSSEQQAMIDYVLAGKDVIVDATVGSGKTTAIQRLCSIMGADHDVLYLTYSKLLKVDAQQRVRGAKVQNYHGIVYPHLLKAGIKCGISESIREFNKNFKHISRTFPSYDLLVIDEYQDINEDYAELLRNIKSVNPLMQIVMVGDLEQKVRSDTTLDPQEFAAQLCEDPVFAPFTQSFRIGEAMAAGLADAWNKPIVGANTAQQIEYRSFAEAVVLIQSTEPSKLLCLGSRNGQMSDALNVVERKSPAKFNKKTVFASIRDGDSQIAHPNDAAVFTTFDSSKGLERDTCVVFDYDEEFWDMRLGYPNVDPVVMRNVFLVAASRGKNKVVFVRSDSLQAAYEAGADWAAGLAVGVVDNNTEVAPEVDAHTPAEESKGDVGEVQSQIERMMGFIPVSVFKELPELAPSEYARPISVTEAFDFKYAENVEACFDLLDVKRLDNGKGAAIEVNRSDGLIDLSPTVGNFQEAVFFKDYNVHTALSAYPSQFAKNLKRLVKKNNSVWRNCLIVTAASTEQMRYVDQVRSSIPVAAEKALVSRLSTRLNADSRNQIPLILDGEAVQSKVVRTPMSFAGVADAVHKGVLYELKFVSELTHPMFLQLAMYLVMSGMKDGILWNTRTDEAWQVRVPDPKRFLNAVVLCVSKQDYRVGNFDLPSTGGEGHHHHHH”, which “soluble on expression in E. coli” value is on record?
The value was “not soluble”.

With “MNDITASSSVILDSLLIDDSLITCEVCFEVFNHENRPPKLLPCGHNFCESCIFSLCLHQEYYLLDSIKCPTCRREFTTNTARQAPTNYDLCKILENLFRRKEQNVTVIEVPELVHNLPPPMAEVSSSATKIVTSQQQQQQQPAVATKMPRHHVSKKMKALAKRTEESKHFRCADCQRKISQKNLFRVSRYCVDCTSTSRMTIVCLECCVNHHNGHDLLTEDSLHHNQLKTLSDLRKLRHRILDSSDEFDRRADEIRTSGMDVCGGLSAEKHNLLTYTLASIDDVMRRIEMAPILFPPVLRTIRDEQSHNFSRLEKLSAQLEKSLVSRKNTKPTSLTFIENMNDTTYQGLQRSVQNQSLNKSTLSIRQSRVSLRTDDSLFHESISSLTRLMHQHPMCLQLEFHHSTVSSKDTVTQRKQKIMSCAHATTSMLDMDLTQVSMVPIFADVLLNCFYQLNRLSKNKFVGDKKYRRCDIWKQVQCSYTELFGITAKHFPSHHPERVDILDDLAYLCHLYSDVADQGTVTICLIEAARARASDSSGLTEIEQQRSEERLELIDEHLTECRRLQKLLELRKTSKTKKNGGLKRLFGGCFIAQEKANDSLVY” as the sequence, how does the “soluble on expression in E. coli” value read?
Its value is “not soluble”.

Source: the DeepSol protein solubility set
